As usually defined, the EC50 (read off the curve) is the concentration at which the effect is half-maximal.

Test [1] has as its target recombinant human GPC3 protein (human) (UniProt P51654). Kind of test: ELISA on plate-coated human GPC3, OD 450 nm. On the technique in general: ELISA stands for enzyme-linked immunosorbent assay.
The target in test [2] is GPC3 expressed endogenously on HepG2 and Hep3B human hepatoma cells (human) (UniProt P51654). Briefly: flow cytometry on HepG2 cells (endogenous GPC3), MFI. A general note: A flow cytometer gives signals particle by particle.
Test [3] has the same target. Briefly: flow cytometry on Hep3B cells (endogenous GPC3), MFI.
In test [4] the target is T1, GPC3 expressed endogenously on HepG2 and Hep3B human hepatoma cells (human, UniProt P51654 25-554).
T1 construct: Endogenous GPC3 of human hepatoma lines; also called HepG2 cells; Hep3B cells
Briefly: flow cytometry on HepG2 cells (endogenous GPC3), MFI.

GPC3 expressed endogenously on HepG2 and Hep3B human hepatoma cells (human), sequence (P51654 other isoform, or with tags, fused parts or gaps limits assumed, form in doubt): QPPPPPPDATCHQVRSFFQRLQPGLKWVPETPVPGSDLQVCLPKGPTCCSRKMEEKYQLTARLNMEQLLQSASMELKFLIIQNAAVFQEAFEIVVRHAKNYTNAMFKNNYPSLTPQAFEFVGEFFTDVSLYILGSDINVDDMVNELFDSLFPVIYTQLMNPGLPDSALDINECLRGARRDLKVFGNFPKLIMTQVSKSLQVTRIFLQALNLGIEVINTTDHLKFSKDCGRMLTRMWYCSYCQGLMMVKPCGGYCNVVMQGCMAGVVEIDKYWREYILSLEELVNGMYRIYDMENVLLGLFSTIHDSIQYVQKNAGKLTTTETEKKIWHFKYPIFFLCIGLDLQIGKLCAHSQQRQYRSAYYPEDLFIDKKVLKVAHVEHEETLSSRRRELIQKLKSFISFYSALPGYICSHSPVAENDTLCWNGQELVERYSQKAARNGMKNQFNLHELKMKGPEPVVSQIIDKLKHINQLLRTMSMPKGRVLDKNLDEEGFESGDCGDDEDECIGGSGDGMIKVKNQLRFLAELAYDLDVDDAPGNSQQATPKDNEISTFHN
T1 sequence (P51654 other isoform, or with tags, fused parts or gaps limits assumed, form in doubt): as above
recombinant human GPC3 protein (human), sequence (P51654 other isoform, or with tags, fused parts or gaps limits assumed, form in doubt): as above

Consider HN3 VHH-Fc (Fc fusion), for which the concentration giving a half-maximal response (EC50 (read off the curve)) in test [1] came out at 0.02 µg/mL; in test [2] it was 2 nM; in test [3], 2 nM.

B1: 1B01 llama-human chimeric bivalent VHH-Fc (Fc fusion)
chain: QVQLQESGGGLVQAGGSLRLSCAAVGLPFSNYAMGWFRQAPGEEREFVSAVSANGGNEYYADSVKDRFTISRDNAKNTVYLRMLSLKLEDTAIYYCATVRRRGGTFTVGSYRGQGTQVTVSS
notes: expressed in ExpiCHO; also called Clone 1B01; 1B01 llama VHH fused to human IgG1 Fc; not shown: human IgG1 Fc fused to the C-terminal of the VHH
B1: in test [4], the “EC50 (read off the curve)” value is ~0.3 nM.

Source of the values: patent US20240043558A1 (SHANGHAI HENLIUS BIOTECH, published 2024).
